Publication PMC2749287

Assays:
VDR;RXRα [1] = target: T1, VDR;RXRα (human;human, UniProt P11473;P19793 1-427;1-462, |); assay: competition
VDR;RXRα [2] = target: T1, VDR;RXRα; assay: EMSA

T1 sequence (P11473 whole entry, chain 1 of 2): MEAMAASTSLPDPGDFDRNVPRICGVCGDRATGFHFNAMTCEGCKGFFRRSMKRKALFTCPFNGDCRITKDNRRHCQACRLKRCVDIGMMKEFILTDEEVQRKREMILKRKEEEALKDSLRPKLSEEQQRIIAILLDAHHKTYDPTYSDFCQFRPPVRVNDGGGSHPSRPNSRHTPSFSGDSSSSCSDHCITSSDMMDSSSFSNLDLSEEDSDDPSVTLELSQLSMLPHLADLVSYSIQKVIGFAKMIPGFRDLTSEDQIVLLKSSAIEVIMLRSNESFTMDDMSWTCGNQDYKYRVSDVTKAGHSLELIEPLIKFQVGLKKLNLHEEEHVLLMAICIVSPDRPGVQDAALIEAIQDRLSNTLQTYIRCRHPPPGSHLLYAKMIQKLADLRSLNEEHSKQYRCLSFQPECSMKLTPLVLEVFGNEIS
T1 sequence (P19793 whole entry, chain 2 of 2): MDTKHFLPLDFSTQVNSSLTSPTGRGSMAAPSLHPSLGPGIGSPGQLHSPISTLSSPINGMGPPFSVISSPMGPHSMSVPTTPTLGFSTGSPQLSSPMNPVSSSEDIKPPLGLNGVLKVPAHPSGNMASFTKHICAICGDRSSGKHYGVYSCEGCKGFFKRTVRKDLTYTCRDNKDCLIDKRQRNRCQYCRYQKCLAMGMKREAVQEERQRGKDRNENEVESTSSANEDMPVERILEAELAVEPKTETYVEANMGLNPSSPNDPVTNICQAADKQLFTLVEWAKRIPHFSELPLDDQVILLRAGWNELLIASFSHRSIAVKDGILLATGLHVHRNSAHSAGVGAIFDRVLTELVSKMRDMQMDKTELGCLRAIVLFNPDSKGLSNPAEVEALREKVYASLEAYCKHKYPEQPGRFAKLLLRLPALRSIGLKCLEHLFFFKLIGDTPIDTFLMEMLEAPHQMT

| Binder | binding result (VDR;RXRα [1]) | binding result (VDR;RXRα [2]) |
| --- | --- | --- |
| unlabeled wild-type VDRE2 competitor (dsDNA) DNA 1: CGAAGCACACCCGGTGAACTCCGGGCTT DNA 2: AAGCCCGGAGTTCACCGGGTGTGCTTCG | binds | – |
| wild-type VDRE2 probe, hCYP24A1 promoter (dsDNA) DNA 1: CGAAGCACACCCGGTGAACTCCGGGCTT DNA 2: AAGCCCGGAGTTCACCGGGTGTGCTTCG | – | binds |
